# Data from patent US12042530B2, “Target peptides for immunotherapy and diagnostics” (University of Virginia Patent Foundation, priority 2012, dated 2024).
# Non-standard residues stand in square brackets, D forms with d. No end group written: not given here. pT = C[C@@H](OP(=O)(O)O)[C@H](N)C(=O)O; pS = N[C@@H](COP(=O)(O)O)C(=O)O
# Experiments:
# HLA-B*0702 = molecular target: T1, HLA-B*0702 (Homo sapiens, UniProt P01889); test: Phosphopeptides presented in association with class I molecules (HLA-B*0702) on cancer cells: melanoma and/or leukemia; design: key: Melanoma (M); Leukemia (L); L/M: Melanoma (M) and/or Leukemia (L); conditions: cancer type on which the HLA-B*0702 phosphopeptide is presented
# T1 construct: endogenous in cells; host or cells: melanoma and/or leukemia cells
# [1] = molecular target: T2, HLA-B*0702 (HLA-B7) peptide complexes (Homo sapiens, UniProt P01889); test: HLA-B*0702 phosphopeptides associated with leukemia samples (isolation of HLA-associated peptides); conditions: for Copies/cell class, ALL1: acute lymphoblastic leukemia sample ALL1; for Copies/cell class, HCL1: hairy cell leukemia sample HCL1; for Copies/cell class, B Cell: healthy B cells; for Copies/cell class, T Cell: healthy T cells
# T2 construct: endogenous in cells; host or cells: JY B-lymphoblastoid line; primary ALL, CLL, HCL, AML samples; bone marrow; healthy B and T cells
# Description: To identify naturally processed tumor-associated phosphopeptides, HLA-A*0201 (HLA-A2) and HLA-B*0702 (HLA-B7) peptide complexes from four (4) chronic lymphocytic leukemia (CLL) tumor samples, a mantle cell lymphoma sample (MCL), one acute lymphoblastic leukemia (ALL), and an acute myeloid leukemia (AML) sample, in addition to healthy splenic T and B-cells and the cultured lymphoblastoid cell line JY were isolated. These efforts yielded 10 HLA-A2-restricted and 86 HLA-B7-restricted phosphopeptide antigens (see Tables 6 and 7).
# All cell lines were grown at 37° C. with 5% CO2 in growth medium consisting of RPMI 1640 supplemented with 10% FCS and two mM L-glutamine. Blood or leukapheresis samples were taken from patients with high-burden leukemia in heparin. Tumor cells were recovered by layering the blood over density gradient (Ficoll) and collecting the tumor layer following centrifugation. The tumor was washed in tris-buffered saline (TBS). The purity of the tumor was assessed using flow cytometry and was >98% pure in all cases. For healthy T and B-cell populations, a normal spleen sample processed and tonsil sample was collected and lymphocytes released through mechanical disruption. Mononuclear cells were isolated using a density gradient and 10^9 T cells isolated using anti-CD19 or anti-CD3 microbeads (Miltenyi Biotec Inc., Auburn, California, United States of America) with purity >98% were obtained. Bone marrow sample was obtained from an elective orthopedic procedure and red cell-depleted using hypotonic lysis. This sample was not processed further.
# Class I MHC molecules were immunoaffinity purified from the JY cell line or from primary tumor samples, and their associated peptides were extracted as previously described in Zarling et al., 2006. Approximately 1.2-14×10^9 cells were lysed in a solution containing 20 mM Tris-HCl (pH 8.0), 150 mM NaCl, 1% CHAPS, one mM PMSF, five μg/mL aprotinin, 10 μg/mL leupeptin, 10 μg/mL pepstatin A, 1 μg/ml calyculin A, and phosphatase inhibitor (cocktails I and II; Sigma-Aldrich). The mixture was subjected to centrifugation and the resulting supernatant was passed over protein A sepharose pre-loaded with the HLA-A2-specific antibody BB7.2 or HLA-B7-specific antibody MEL Peptides were eluted from the purified class I MHC molecules with 10% acetic acid.
Substance,L/M (HLA-B*0702),"Copies/cell class, AML1 [1]","Copies/cell class, CLL2 [1]","Copies/cell class, JY [1]","Copies/cell class, ALL1 [1]","Copies/cell class, HCL1 [1]","Copies/cell class, B Cell [1]","Copies/cell class, T Cell [1]","Copies/cell class, CLL4 [1]"
325 (RPRAN[pS]GGVDL; listed as Homo sapiens) [compound 325],L,2 (2 indicates 1-5 copies/cell),–,–,–,–,–,–,–
314 (RPH[pS]PEKAF; listed as Homo sapiens) [compound 314],L,1 (1 indicates <1 copy/cell),1 (1 indicates <1 copy/cell),3 (3 indicates 6-25 copies per cell),1 (1 indicates <1 copy/cell),1 (1 indicates <1 copy/cell),–,–,–
343 (RPS[pS]LPDL; listed as Homo sapiens) [compound 343],L,2 (2 indicates 1-5 copies/cell),2 (2 indicates 1-5 copies/cell),3 (3 indicates 6-25 copies per cell),4 (4 indicates >25 copies per cell),1 (1 indicates <1 copy/cell),3 (3 indicates 6-25 copies per cell),4 (4 indicates >25 copies per cell),–
360 (RSL[pS]PGGAA; listed as Homo sapiens) [compound 360],L,–,–,–,1 (1 indicates <1 copy/cell),–,–,–,–
302 (QPR[pS]PGPDYSL; listed as Homo sapiens) [compound 302],L,3 (3 indicates 6-25 copies per cell),–,–,–,–,–,–,–
305 (RAP[pS]PSSRM; listed as Homo sapiens) [compound 305],L,–,–,–,4 (4 indicates >25 copies per cell),–,1 (1 indicates <1 copy/cell),–,–
282 (KPA[pS]PARRL; listed as Homo sapiens) [compound 282],L,–,1 (1 indicates <1 copy/cell),1 (1 indicates <1 copy/cell),1 (1 indicates <1 copy/cell),1 (1 indicates <1 copy/cell),–,–,–
308 (RPA[pS]ARAQPGL; listed as Homo sapiens) [compound 308],L/M,2 (2 indicates 1-5 copies/cell),3 (3 indicates 6-25 copies per cell),4 (4 indicates >25 copies per cell),1 (1 indicates <1 copy/cell),2 (2 indicates 1-5 copies/cell),–,–,2 (2 indicates 1-5 copies/cell)
270 (EPR[pS]PSHSM; listed as Homo sapiens) [compound 270],L,1 (1 indicates <1 copy/cell),–,–,–,–,–,–,–
391 (YQR[pS]FDEVEGV; listed as Homo sapiens) [compound 391],L,1 (1 indicates <1 copy/cell),–,–,–,–,–,–,–
328 (RPRPV[pS]PSSL; listed as Homo sapiens) [compound 328],L,1 (1 indicates <1 copy/cell),–,–,–,–,–,–,–
379 (SPR[pS]PSTTYL; listed as Homo sapiens) [compound 379],L,2 (2 indicates 1-5 copies/cell),–,–,–,–,–,–,–
306 (RPAK[pS]MDSL; listed as Homo sapiens) [compound 306],L,–,2 (2 indicates 1-5 copies/cell),4 (4 indicates >25 copies per cell),2 (2 indicates 1-5 copies/cell),1 (1 indicates <1 copy/cell),2 (2 indicates 1-5 copies/cell),3 (3 indicates 6-25 copies per cell),–
361 (RSL[pS]PLLF; listed as Homo sapiens) [compound 361],L,–,–,–,2 (2 indicates 1-5 copies/cell),–,1 (1 indicates <1 copy/cell),1 (1 indicates <1 copy/cell),–
309 (RPA[pS]PAAKL; listed as Homo sapiens) [compound 309],M,1 (1 indicates <1 copy/cell),2 (2 indicates 1-5 copies/cell),4 (4 indicates >25 copies per cell),2 (2 indicates 1-5 copies/cell),1 (1 indicates <1 copy/cell),1 (1 indicates <1 copy/cell),1 (1 indicates <1 copy/cell),1 (1 indicates <1 copy/cell)
356 (RRS[pS]LDAEIDSL; listed as Homo sapiens) [compound 356],L,1 (1 indicates <1 copy/cell),–,–,–,–,–,–,–
382 (SPS[pS]PSVRRQL; listed as Homo sapiens) [compound 382],L,2 (2 indicates 1-5 copies/cell),–,–,–,–,2 (2 indicates 1-5 copies/cell),2 (2 indicates 1-5 copies/cell),–
359 (RSG[pS]LERKV; listed as Homo sapiens) [compound 359],L,–,–,–,1 (1 indicates <1 copy/cell),–,–,–,–
367 (SPA[pS]PKISL; listed as Homo sapiens) [compound 367],L,–,1 (1 indicates <1 copy/cell),4 (4 indicates >25 copies per cell),1 (1 indicates <1 copy/cell),1 (1 indicates <1 copy/cell),–,–,1 (1 indicates <1 copy/cell)

# Second part, the substance after the results:
L/M (HLA-B*0702),"Copies/cell class, AML1 [1]","Copies/cell class, CLL2 [1]","Copies/cell class, JY [1]","Copies/cell class, ALL1 [1]","Copies/cell class, HCL1 [1]","Copies/cell class, B Cell [1]","Copies/cell class, T Cell [1]","Copies/cell class, CLL4 [1]",Substance
L,2 (2 indicates 1-5 copies/cell),1 (1 indicates <1 copy/cell),4 (4 indicates >25 copies per cell),2 (2 indicates 1-5 copies/cell),1 (1 indicates <1 copy/cell),–,–,–,312 (RPD[pS]RLGKTEL; listed as Homo sapiens) [compound 312]
L,–,–,–,1 (1 indicates <1 copy/cell),–,–,–,–,320 (RPPPPPD[pT]PP; listed as Homo sapiens) [compound 320]
L/M,4 (4 indicates >25 copies per cell),4 (4 indicates >25 copies per cell),4 (4 indicates >25 copies per cell),2 (2 indicates 1-5 copies/cell),4 (4 indicates >25 copies per cell),–,–,4 (4 indicates >25 copies per cell),295 (KPR[pS]PVVEL; listed as Homo sapiens) [compound 295]
L,–,1 (1 indicates <1 copy/cell),–,3 (3 indicates 6-25 copies per cell),1 (1 indicates <1 copy/cell),2 (2 indicates 1-5 copies/cell),2 (2 indicates 1-5 copies/cell),–,322 (RPP[pS]SEFLDL; listed as Homo sapiens) [compound 322]
L,2 (2 indicates 1-5 copies/cell),–,–,–,–,–,–,–,339 (RPR[pS]PTGP[pS]NSF; listed as Homo sapiens) [compound 339]
L,1 (1 indicates <1 copy/cell),1 (1 indicates <1 copy/cell),–,1 (1 indicates <1 copy/cell),1 (1 indicates <1 copy/cell),–,–,1 (1 indicates <1 copy/cell),344 (RP[pS]SPALYF; listed as Homo sapiens) [compound 344]
L,1 (1 indicates <1 copy/cell),–,–,–,–,–,–,–,368 (SPEKAGRR[pS]SL; listed as Homo sapiens) [compound 368]
L,2 (2 indicates 1-5 copies/cell),2 (2 indicates 1-5 copies/cell),4 (4 indicates >25 copies per cell),2 (2 indicates 1-5 copies/cell),2 (2 indicates 1-5 copies/cell),2 (2 indicates 1-5 copies/cell),–,2 (2 indicates 1-5 copies/cell),346 (RPT[pS]RLNRL; listed as Homo sapiens) [compound 346]
L,4 (4 indicates >25 copies per cell),–,–,–,–,–,–,–,338 (RPR[pS]PTGP; listed as Homo sapiens) [compound 338]
